In the supplement of paper PMC9112550, “Optimization of the antimicrobial peptide Bac7 by deep mutational scanning” (BMC Biology, 2022):

Test system: Escherichia coli TOP10
Experiment: shrunken log2 fold change of peptide-encoding DNA abundance (4.5 h post-induction vs induction); higher = less antimicrobial activity (less host growth inhibition)
Conditions: time post-induction: 4.5 h; library: site-saturation at positions 5, 18, 19, 20
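Note: peptides expressed intracellularly from a pBAD plasmid library in pooled LB shake-flask culture, induced with 0.3% L-arabinose, DNA abundance read by NGS, three biological replicates, DESeq2 with apeglm shrinkage.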

Row | Sequence | shrunken log2 fold change
1 | RRIRMRPPRLPRPRPRPWGSPRP | 0.0578
2 | RRIRWRPPRLPRPRPRPTDVPRP | -0.283
3 | RRIRMRPPRLPRPRPRPITWPRP | -0.327
4 | RRIRLRPPRLPRPRPRPAETPRP | 0.0382
5 | RRIRIRPPRLPRPRPRPIYKPRP | -0.517
6 | RRIRTRPPRLPRPRPRPRYAPRP | 0.108
7 | RRIRDRPPRLPRPRPRPPTDPRP | 0.564
8 | RRIRCRPPRLPRPRPRPNLEPRP | -0.267
9 | RRIRFRPPRLPRPRPRPRHTPRP | -0.00169
10 | RRIRYRPPRLPRPRPRPFATPRP | -0.49
11 | RRIRTRPPRLPRPRPRPLCMPRP | -0.385
12 | RRIRPRPPRLPRPRPRPGMNPRP | -0.0398
13 | RRIRLRPPRLPRPRPRPVVSPRP | -0.054
14 | RRIRPRPPRLPRPRPRPQLEPRP | 0.376
15 | RRIRSRPPRLPRPRPRPCKHPRP | -0.216
16 | RRIRARPPRLPRPRPRPFDYPRP | -0.245
17 | RRIRDRPPRLPRPRPRPGCSPRP | 0.278
18 | RRIRKRPPRLPRPRPRPHWMPRP | 0.0937
19 | RRIRHRPPRLPRPRPRPPHAPRP | 0.334
20 | RRIRFRPPRLPRPRPRPFWDPRP | -0.374
21 | RRIRIRPPRLPRPRPRPTMAPRP | -0.445
22 | RRIRHRPPRLPRPRPRPYCFPRP | -0.792
23 | RRIRRRPPRLPRPRPRPALQPRP | 1.92
24 | RRIRDRPPRLPRPRPRPVSTPRP | 0.0725
25 | RRIRKRPPRLPRPRPRPFATPRP | 0.45

Row | Sequence | shrunken log2 fold change
26 | RRIRKRPPRLPRPRPRPIPDPRP | 0.2
27 | RRIRKRPPRLPRPRPRPMKFPRP | -0.0265
28 | RRIRLRPPRLPRPRPRPRRCPRP | 0.356
29 | RRIRHRPPRLPRPRPRPNVVPRP | 0.015
30 | RRIRPRPPRLPRPRPRPSNAPRP | 0.055
31 | RRIRHRPPRLPRPRPRPICCPRP | 0.055
32 | RRIRDRPPRLPRPRPRPFMPPRP | -0.124
33 | RRIRQRPPRLPRPRPRPRWKPRP | 0.552
34 | RRIRHRPPRLPRPRPRPSVIPRP | -0.369
35 | RRIRARPPRLPRPRPRPELRPRP | 1.14
36 | RRIRSRPPRLPRPRPRPMWHPRP | -0.332
37 | RRIRMRPPRLPRPRPRPSGPPRP | 0.205
38 | RRIRWRPPRLPRPRPRPSRLPRP | 0.00373
39 | RRIRKRPPRLPRPRPRPPTIPRP | 0.119
40 | RRIRMRPPRLPRPRPRPFPPPRP | 0.103
41 | RRIRNRPPRLPRPRPRPQTNPRP | -0.276
42 | RRIRSRPPRLPRPRPRPEVKPRP | 0.287
43 | RRIRCRPPRLPRPRPRPQMTPRP | 0.218
44 | RRIRQRPPRLPRPRPRPYHVPRP | -0.00172
45 | RRIRQRPPRLPRPRPRPWHWPRP | 0.107
46 | RRIRERPPRLPRPRPRPWNQPRP | -0.124
47 | RRIRERPPRLPRPRPRPTISPRP | -0.163
48 | RRIRERPPRLPRPRPRPWRVPRP | -0.0327
49 | RRIRRRPPRLPRPRPRPPAYPRP | 0.618
50 | RRIRERPPRLPRPRPRPIAVPRP | 0.0116

Row | Sequence | shrunken log2 fold change
51 | RRIRFRPPRLPRPRPRPTSPPRP | 0.194
52 | RRIRNRPPRLPRPRPRPIKQPRP | -0.0298
53 | RRIRLRPPRLPRPRPRPPGPPRP | 0.359
54 | RRIRKRPPRLPRPRPRPEVMPRP | 0.148
55 | RRIRTRPPRLPRPRPRPRGNPRP | 0.0399
56 | RRIRYRPPRLPRPRPRPNQMPRP | -0.194
57 | RRIRGRPPRLPRPRPRPPPMPRP | 1.19
58 | RRIRPRPPRLPRPRPRPDNLPRP | -0.35
59 | RRIRFRPPRLPRPRPRPIKDPRP | -0.234
60 | RRIRGRPPRLPRPRPRPWWWPRP | 0.152
61 | RRIRRRPPRLPRPRPRPPNEPRP | 0.804
62 | RRIRLRPPRLPRPRPRPVGTPRP | 0.00938
63 | RRIRSRPPRLPRPRPRPYSIPRP | -0.376
64 | RRIRKRPPRLPRPRPRPLRPPRP | 1.01
65 | RRIRPRPPRLPRPRPRPEQRPRP | 0.124
66 | RRIRHRPPRLPRPRPRPLGQPRP | 0.0866
67 | RRIRNRPPRLPRPRPRPPRGPRP | 1.3
68 | RRIRMRPPRLPRPRPRPVEFPRP | -0.0638
69 | RRIRIRPPRLPRPRPRPELYPRP | -0.0779
70 | RRIRWRPPRLPRPRPRPDEAPRP | 0.0325
71 | RRIRSRPPRLPRPRPRPAIQPRP | -0.21
72 | RRIRIRPPRLPRPRPRPREYPRP | -0.565
73 | RRIRARPPRLPRPRPRPQWKPRP | 0.179
74 | RRIRQRPPRLPRPRPRPSKRPRP | -0.188
75 | RRIRMRPPRLPRPRPRPHWRPRP | 0.0569
